Assay results published in the supplement of paper PMC10065799, “High-throughput profiling of sequence recognition by tyrosine kinases and SH2 domains using bacterial peptide display” (eLife, 2023).

Experiments:
AncSZ = test: phosphorylation enrichment, bacterial display (enrichment ratio); higher = better substrate or ligand; peptides without Tyr show the background
EPHB1 = EPHB1 (UniProt P54762); test: as above
EPHB2 = EPHB2 (UniProt P29323); test: as above
FGFR1 = FGFR1 (UniProt P11362); test: as above
FGFR1, sequence (P11362 whole entry, looked up): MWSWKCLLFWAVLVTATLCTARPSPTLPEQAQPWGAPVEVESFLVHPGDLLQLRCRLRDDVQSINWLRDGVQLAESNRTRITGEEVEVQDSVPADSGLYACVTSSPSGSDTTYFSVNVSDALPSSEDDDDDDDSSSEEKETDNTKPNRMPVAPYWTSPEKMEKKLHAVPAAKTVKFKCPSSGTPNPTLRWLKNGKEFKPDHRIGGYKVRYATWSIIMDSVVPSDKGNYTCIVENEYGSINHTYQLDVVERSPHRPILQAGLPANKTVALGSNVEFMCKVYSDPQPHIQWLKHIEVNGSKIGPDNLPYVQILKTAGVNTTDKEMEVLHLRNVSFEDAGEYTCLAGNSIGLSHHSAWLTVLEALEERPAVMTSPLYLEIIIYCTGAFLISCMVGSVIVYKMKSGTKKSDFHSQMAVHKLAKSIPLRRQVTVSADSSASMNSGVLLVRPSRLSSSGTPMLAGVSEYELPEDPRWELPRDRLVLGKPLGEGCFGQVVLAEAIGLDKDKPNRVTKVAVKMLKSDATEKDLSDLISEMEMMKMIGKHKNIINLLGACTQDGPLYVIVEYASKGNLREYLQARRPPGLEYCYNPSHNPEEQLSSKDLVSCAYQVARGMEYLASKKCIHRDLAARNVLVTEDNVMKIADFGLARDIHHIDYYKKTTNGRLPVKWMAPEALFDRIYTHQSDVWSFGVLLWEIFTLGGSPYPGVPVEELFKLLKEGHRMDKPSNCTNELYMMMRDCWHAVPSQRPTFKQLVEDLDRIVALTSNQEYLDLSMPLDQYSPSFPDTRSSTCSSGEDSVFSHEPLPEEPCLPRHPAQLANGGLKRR

FGFR3 = FGFR3 (UniProt P22607); test: as above
FGFR3, sequence (P22607 whole entry, looked up): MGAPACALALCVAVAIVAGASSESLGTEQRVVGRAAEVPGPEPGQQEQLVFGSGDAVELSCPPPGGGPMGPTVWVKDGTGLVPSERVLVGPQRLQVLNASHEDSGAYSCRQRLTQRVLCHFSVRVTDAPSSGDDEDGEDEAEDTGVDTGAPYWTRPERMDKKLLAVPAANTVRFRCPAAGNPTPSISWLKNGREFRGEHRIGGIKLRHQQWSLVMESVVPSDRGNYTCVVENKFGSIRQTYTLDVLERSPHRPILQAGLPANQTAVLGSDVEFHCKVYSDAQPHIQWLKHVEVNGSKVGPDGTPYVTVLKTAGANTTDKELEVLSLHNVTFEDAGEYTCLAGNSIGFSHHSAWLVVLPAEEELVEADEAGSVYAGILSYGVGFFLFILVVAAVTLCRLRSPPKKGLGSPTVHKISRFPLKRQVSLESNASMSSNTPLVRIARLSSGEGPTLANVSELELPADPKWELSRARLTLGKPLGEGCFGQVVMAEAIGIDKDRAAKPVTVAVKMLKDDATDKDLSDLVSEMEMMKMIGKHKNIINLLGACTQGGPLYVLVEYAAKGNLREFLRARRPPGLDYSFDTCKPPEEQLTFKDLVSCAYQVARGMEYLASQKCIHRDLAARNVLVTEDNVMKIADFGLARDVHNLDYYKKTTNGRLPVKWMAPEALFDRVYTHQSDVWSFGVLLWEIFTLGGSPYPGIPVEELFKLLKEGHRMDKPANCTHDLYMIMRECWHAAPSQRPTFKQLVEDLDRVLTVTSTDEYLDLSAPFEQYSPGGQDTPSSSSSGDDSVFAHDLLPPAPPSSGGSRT

Fer (mouse) = test: as above
Fes = Fes (UniProt P07332); test: as above
Fyn = Fyn (UniProt P06241); test: as above
Hck = Hck (UniProt P08631); test: as above
Jak2 = Jak2 (UniProt O60674); test: as above
Jak2, sequence (O60674 whole entry, looked up): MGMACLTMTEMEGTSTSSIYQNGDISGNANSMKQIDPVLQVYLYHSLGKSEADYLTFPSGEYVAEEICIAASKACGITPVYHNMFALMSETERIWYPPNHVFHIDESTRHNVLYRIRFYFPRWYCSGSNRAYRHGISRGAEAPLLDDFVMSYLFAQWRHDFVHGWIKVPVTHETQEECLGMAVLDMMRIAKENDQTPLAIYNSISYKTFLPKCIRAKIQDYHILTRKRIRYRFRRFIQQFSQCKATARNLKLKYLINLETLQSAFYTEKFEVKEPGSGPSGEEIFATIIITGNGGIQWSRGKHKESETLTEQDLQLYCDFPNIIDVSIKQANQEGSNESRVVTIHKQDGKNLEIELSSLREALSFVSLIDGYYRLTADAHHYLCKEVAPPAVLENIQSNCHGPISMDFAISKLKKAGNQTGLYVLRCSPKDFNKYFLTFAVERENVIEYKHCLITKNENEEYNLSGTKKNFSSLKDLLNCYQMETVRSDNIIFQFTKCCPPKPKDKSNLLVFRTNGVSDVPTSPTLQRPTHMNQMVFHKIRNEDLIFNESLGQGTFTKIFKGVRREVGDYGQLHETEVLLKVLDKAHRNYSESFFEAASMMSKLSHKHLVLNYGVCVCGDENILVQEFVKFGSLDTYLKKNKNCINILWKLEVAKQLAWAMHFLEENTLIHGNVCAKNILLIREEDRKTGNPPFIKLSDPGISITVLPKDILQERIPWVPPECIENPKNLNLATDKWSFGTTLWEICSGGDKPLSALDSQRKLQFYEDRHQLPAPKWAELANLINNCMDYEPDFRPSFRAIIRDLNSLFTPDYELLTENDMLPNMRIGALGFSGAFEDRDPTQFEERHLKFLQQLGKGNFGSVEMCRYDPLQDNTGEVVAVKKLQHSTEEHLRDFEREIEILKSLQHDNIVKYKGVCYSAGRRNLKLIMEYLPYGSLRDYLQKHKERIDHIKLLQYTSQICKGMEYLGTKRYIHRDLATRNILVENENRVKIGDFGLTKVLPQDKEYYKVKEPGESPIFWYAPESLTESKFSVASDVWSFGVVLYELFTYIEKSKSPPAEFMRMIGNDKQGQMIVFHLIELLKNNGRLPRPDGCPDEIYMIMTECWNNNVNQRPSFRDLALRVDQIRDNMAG

MERTK = MERTK (UniProt Q12866); test: as above
MERTK, sequence (Q12866 whole entry, looked up): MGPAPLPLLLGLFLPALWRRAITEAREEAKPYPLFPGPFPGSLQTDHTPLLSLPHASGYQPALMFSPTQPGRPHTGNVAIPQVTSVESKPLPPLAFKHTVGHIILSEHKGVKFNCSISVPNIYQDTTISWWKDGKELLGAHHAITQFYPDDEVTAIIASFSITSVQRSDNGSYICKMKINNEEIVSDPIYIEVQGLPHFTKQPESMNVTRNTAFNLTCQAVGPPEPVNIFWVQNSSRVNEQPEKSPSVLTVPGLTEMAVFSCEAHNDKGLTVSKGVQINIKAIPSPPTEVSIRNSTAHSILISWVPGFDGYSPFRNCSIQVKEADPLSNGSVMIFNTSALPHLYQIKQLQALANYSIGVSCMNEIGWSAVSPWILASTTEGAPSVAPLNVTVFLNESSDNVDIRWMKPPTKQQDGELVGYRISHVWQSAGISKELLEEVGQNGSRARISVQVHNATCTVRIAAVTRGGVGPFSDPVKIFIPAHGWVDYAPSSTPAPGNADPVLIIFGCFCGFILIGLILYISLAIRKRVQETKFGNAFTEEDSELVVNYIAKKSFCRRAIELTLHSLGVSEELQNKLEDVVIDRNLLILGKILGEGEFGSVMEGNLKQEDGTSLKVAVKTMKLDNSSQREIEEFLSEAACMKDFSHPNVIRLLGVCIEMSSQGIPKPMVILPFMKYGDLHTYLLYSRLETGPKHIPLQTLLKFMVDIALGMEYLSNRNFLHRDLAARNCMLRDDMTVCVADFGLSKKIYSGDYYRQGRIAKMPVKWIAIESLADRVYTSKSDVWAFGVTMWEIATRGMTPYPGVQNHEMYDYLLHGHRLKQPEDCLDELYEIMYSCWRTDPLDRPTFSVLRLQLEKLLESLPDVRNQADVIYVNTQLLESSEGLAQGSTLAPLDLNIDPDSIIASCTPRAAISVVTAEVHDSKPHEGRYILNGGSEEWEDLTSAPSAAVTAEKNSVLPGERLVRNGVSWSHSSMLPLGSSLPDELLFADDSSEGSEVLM

c-Abl (mouse) = test: as above
c-Src = test: as above
Grb2 SH2 = Grb2 SH2 (UniProt P62993); test: SH2 binding enrichment of the phosphorylated peptide, bacterial display (enrichment ratio); higher = better substrate or ligand; peptides without Tyr show the background
Grb2 SH2, sequence (P62993 whole entry, looked up): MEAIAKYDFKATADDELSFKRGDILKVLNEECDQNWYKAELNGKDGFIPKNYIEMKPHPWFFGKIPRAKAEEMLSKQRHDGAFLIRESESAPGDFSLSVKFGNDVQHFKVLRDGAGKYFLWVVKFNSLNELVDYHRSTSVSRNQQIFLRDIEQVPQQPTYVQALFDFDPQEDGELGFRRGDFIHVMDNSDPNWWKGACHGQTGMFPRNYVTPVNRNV

SHP2-C SH2 = test: as above
c-Src SH2 = test: as above
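Wherever SH2 binding enrichment of the phosphorylated peptide, bacterial display is given: peptide library displayed on the E. coli surface as eCPX fusions, selected cells deep-sequenced, score is each peptide's frequency after selection divided by its frequency in the input.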
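Wherever phosphorylation enrichment, bacterial display is given: 11-residue human phosphosite peptides and single-mutation variants displayed on the E. coli surface, counted by deep sequencing, each peptide's frequency after selection divided by its frequency in the unselected input library; frequency after pTyr selection over input frequency; kinase dosed for 20-30% of maximal phosphorylation in three min.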

EPHB1, sequence (P54762 whole entry, looked up): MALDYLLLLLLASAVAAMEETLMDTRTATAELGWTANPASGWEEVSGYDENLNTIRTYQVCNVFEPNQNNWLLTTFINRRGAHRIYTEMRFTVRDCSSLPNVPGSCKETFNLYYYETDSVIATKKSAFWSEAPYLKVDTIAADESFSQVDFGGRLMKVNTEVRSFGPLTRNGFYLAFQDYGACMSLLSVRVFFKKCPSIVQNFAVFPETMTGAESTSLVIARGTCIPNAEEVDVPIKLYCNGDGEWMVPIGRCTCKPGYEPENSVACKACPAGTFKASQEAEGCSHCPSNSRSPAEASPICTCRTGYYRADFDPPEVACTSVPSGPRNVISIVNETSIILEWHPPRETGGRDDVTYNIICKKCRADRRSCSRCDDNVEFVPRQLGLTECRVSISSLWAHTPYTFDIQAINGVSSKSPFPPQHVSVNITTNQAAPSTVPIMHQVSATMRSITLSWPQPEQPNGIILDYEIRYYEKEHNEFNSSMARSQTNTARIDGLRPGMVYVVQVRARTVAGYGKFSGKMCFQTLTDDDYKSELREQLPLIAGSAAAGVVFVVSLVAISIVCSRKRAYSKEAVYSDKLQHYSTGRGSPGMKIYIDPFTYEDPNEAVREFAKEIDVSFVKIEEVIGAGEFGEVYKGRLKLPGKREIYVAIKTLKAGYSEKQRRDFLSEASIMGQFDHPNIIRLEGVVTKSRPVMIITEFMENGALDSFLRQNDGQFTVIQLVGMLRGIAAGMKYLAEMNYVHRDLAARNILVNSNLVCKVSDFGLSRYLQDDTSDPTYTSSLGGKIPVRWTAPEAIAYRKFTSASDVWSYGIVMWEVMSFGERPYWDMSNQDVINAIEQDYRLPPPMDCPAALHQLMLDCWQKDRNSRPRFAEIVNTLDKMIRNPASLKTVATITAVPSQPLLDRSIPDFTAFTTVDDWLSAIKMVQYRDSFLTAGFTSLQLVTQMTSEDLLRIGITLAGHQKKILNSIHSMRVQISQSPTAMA

| Sequence | phosphorylation enrichment (AncSZ) | phosphorylation enrichment (EPHB1) | phosphorylation enrichment (EPHB2) | phosphorylation enrichment (FGFR1) | phosphorylation enrichment (FGFR3) | phosphorylation enrichment (Fer (mouse)) | phosphorylation enrichment (Fes) | phosphorylation enrichment (Fyn) | phosphorylation enrichment (Hck) | phosphorylation enrichment (Jak2) | phosphorylation enrichment (MERTK) | phosphorylation enrichment (c-Abl (mouse)) | phosphorylation enrichment (c-Src) | SH2 binding enrichment (Grb2 SH2) | SH2 binding enrichment (SHP2-C SH2) | SH2 binding enrichment (c-Src SH2) |
| --- | --- | --- | --- | --- | --- | --- | --- | --- | --- | --- | --- | --- | --- | --- | --- | --- |
| VDTGVYAVPPP [BCAR1_Y410_S407T] | 2.39 | 8.36 | 20.2 | 1.28 | 1.14 | 5.77 | 0.799 | 8.6 | 7.67 | 0.827 | 9.22 | 20.7 | 4.89 | 0.775 | 0.602 | 0.556 |
| GLDGSYLLRDS [SH2D1A_Y29] | 0.574 | 0.371 | 0.387 | 0.426 | 0.464 | 0.39 | 0.622 | 0.413 | 0.563 | 0.578 | 0.413 | 0.471 | 0.397 | 0.756 | 0.636 | 0.42 |
| VVGMLYVGGLP [LAMA2_Y2886] | 0.999 | 0.727 | 0.644 | 0.491 | 0.683 | 0.486 | 1.2 | 0.455 | 0.454 | 1.08 | 0.449 | 0.742 | 0.388 | 0.78 | 0.785 | 0.461 |
| EYFENYIEELK [PARP4_Y218] | 1.44 | 0.73 | 0.647 | 2.31 | 1.69 | 0.518 | 1.4 | 0.539 | 0.607 | 1.5 | 0.422 | 0.851 | 0.63 | 0.657 | 0.785 | 0.38 |
| DPHECYAKVFD [ALB_Y394] | 1.11 | 0.593 | 0.591 | 0.506 | 0.749 | 0.584 | 1.14 | 0.488 | 0.582 | 0.88 | 0.42 | 0.692 | 0.665 | 0.987 | 1.32 | 3.02 |
| KSLFHYRQFSA [CPS1_Y1491_YF] | 0.656 | 0.553 | 0.453 | 0.546 | 0.498 | 0.534 | 0.859 | 0.466 | 0.42 | 0.942 | 0.415 | 0.59 | 0.472 | 0.734 | 0.601 | 0.395 |
| ITVCDYTNPCT [MYD88_Y276] | 1.66 | 0.583 | 0.691 | 0.521 | 0.719 | 0.395 | 1.02 | 0.401 | 0.415 | 1.11 | 0.426 | 0.651 | 1.26 | 0.968 | 0.603 | 0.701 |
| PFFTSYPPSPD [GDAP2_Y491_YF] | 0.907 | 0.438 | 0.447 | 0.557 | 0.644 | 0.507 | 1.15 | 0.498 | 0.356 | 1.14 | 0.629 | 0.901 | 0.588 | 0.739 | 0.568 | 0.471 |
| RFVTRHIFNRE [HLA-DQB1_Y62_Y62H_YF] | 0.843 | 0.482 | 0.314 | 0.584 | 0.658 | 0.43 | 1.12 | 0.651 | 0.431 | 0.766 | 0.583 | 0.719 | 0.62 | 0.443 | 0.721 | 0.293 |
| AKKKMYSHKTK [AGXT_Y231_R233H] | 0.961 | 1.01 | 0.823 | 0.621 | 2.37 | 1.12 | 1.63 | 0.609 | 0.666 | 3.12 | 0.689 | 1.62 | 0.727 | 1.44 | 1.42 | 1.34 |
| RRGTGYTLSLP [MAGEC3_Y152] | 0.579 | 0.553 | 0.643 | 0.772 | 0.643 | 0.564 | 0.812 | 0.73 | 0.693 | 0.477 | 0.551 | 0.764 | 0.497 | 0.686 | 0.556 | 0.358 |
| TESALYGCTVL [KIAA1804_Y724] | 1.13 | 0.686 | 0.885 | 0.559 | 1.15 | 4.71 | 1.27 | 5.57 | 4.05 | 1.12 | 1.46 | 1.04 | 4.74 | 0.82 | 0.916 | 0.552 |
| LQLLGYRPVFS [CHST6_Y358_YF] | 1.17 | 0.598 | 0.793 | 0.535 | 0.707 | 0.57 | 1.42 | 0.451 | 0.697 | 1.15 | 0.502 | 0.865 | 0.487 | 0.806 | 0.626 | 0.68 |
| AAVDTVCRHNF [HLA-DRB1_Y107_Y107V_YF] | 0.765 | 0.521 | 0.577 | 0.499 | 0.533 | 0.54 | 1.29 | 0.398 | 0.429 | 1.15 | 0.488 | 0.937 | 0.491 | 0.888 | 0.479 | 0.529 |
| RAYRRYLLKQK [SCN2A_Y1919] | 0.729 | 0.353 | 0.468 | 0.489 | 0.495 | 0.415 | 0.491 | 0.559 | 0.51 | 0.486 | 0.387 | 0.42 | 0.446 | 0.61 | 0.573 | 0.514 |
| GYIISYREEEQ | 1.79 | 0.48 | 0.599 | 0.532 | 0.586 | 0.596 | 2.14 | 0.546 | 0.473 | 1.53 | 0.539 | 0.909 | 0.516 | 0.857 | 1.04 | 0.527 |
| TNRSFYFKPSL [NUP153_Y382_V381F] | 0.988 | 0.646 | 0.555 | 0.954 | 0.63 | 0.406 | 0.993 | 0.428 | 0.533 | 3.54 | 2.6 | 1.35 | 0.491 | 1.04 | 0.774 | 0.806 |
| PYAEPYADYGG [APBA1_Y187_S184A] | 2.86 | 1.16 | 1.4 | 2.13 | 1.76 | 0.861 | 3.07 | 1.33 | 1.19 | 2.47 | 0.853 | 1.82 | 5.47 | 0.836 | 0.695 | 7.71 |
| PQGVGYPPQPQ [EP300_Y2219_Q2223P] | 0.972 | 0.503 | 0.53 | 0.695 | 0.569 | 0.815 | 0.904 | 0.564 | 0.571 | 0.926 | 0.74 | 0.931 | 0.802 | 0.998 | 0.716 | 0.666 |
| RAILDYIASKF [GSTA3_Y74_N73D_YF] | 0.674 | 0.479 | 0.445 | 0.567 | 0.79 | 0.542 | 1.02 | 0.433 | 0.395 | 0.755 | 0.375 | 0.603 | 0.358 | 1.08 | 1.06 | 0.689 |
| RGRKVYLEDGF [PRIM2_Y201] | 1.04 | 0.662 | 0.649 | 0.749 | 0.851 | 1.13 | 0.911 | 0.698 | 0.852 | 0.808 | 1.15 | 1.29 | 1.11 | 1 | 0.353 | 0.435 |
| MEFAKYGSLRG [RET_Y809_V804M_YF] | 0.604 | 0.427 | 0.629 | 0.514 | 0.448 | 0.348 | 0.628 | 0.456 | 0.49 | 0.495 | 0.417 | 0.454 | 0.484 | 1 | 0.729 | 0.453 |
| PSDPSYEDTRE [BMPR1A_Y467_M470T] | 1.66 | 0.765 | 0.883 | 0.813 | 1.18 | 0.894 | 2.73 | 0.887 | 1.19 | 2.37 | 0.827 | 1.71 | 1.14 | 1.77 | 1.52 | 1.73 |
| GTAPSYGNPSS [CD19_Y378] | 0.517 | 0.407 | 0.362 | 0.38 | 0.494 | 0.299 | 0.56 | 0.358 | 0.336 | 0.594 | 0.432 | 0.589 | 0.496 | 0.907 | 0.556 | 0.45 |
| DYTEAYNSKIK [CLK1_Y305_P307S] | 0.897 | 0.446 | 0.449 | 0.514 | 0.585 | 0.377 | 0.969 | 0.339 | 0.382 | 0.965 | 0.454 | 0.584 | 0.492 | 0.587 | 0.582 | 1 |
| RKNAKYLLKGE [CDH5_Y82] | 0.779 | 0.848 | 0.821 | 0.712 | 0.545 | 0.666 | 1.37 | 0.64 | 0.577 | 0.827 | 0.718 | 0.901 | 0.687 | 1.19 | 1.06 | 0.749 |
| TNDRLYLRSLE [MTM1_Y71_Y68D] | 0.881 | 0.514 | 0.452 | 0.438 | 0.503 | 0.411 | 0.978 | 0.458 | 0.443 | 0.937 | 0.376 | 0.651 | 0.535 | 0.855 | 0.6 | 0.616 |
| FRIGPYQPSVP [MATR3_Y784_N787S_YF] | 0.712 | 0.604 | 0.543 | 0.517 | 0.616 | 0.5 | 0.868 | 0.453 | 0.537 | 0.662 | 0.412 | 0.536 | 0.478 | 0.843 | 0.782 | 0.657 |
| DHPSEYAARQL [ANXA13_Y90_R86H] | 0.657 | 0.352 | 0.494 | 0.496 | 0.445 | 0.365 | 0.633 | 0.454 | 0.525 | 0.576 | 0.453 | 0.66 | 0.482 | 0.826 | 0.657 | 0.483 |
